B1: PTPN9 (parent)
chain: TQHLPRECLPENLGGYVKIDLATW
B2: CFHR2 (parent)
chain: FVENGHSESSGQTHLEGDTVQIIC

Variants of: B1
Assay: protein stability index of a GFP-peptide fusion (GPS, HEK-293T) (PSI 1-6); higher = more stable
Conditions: c terminus: a fixed tail appended
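Also: lentivirally expressed fusions sorted by FACS into six bins by GFP to DsRed ratio, PSI derived from sequencing read proportions per bin multiplied by bin number.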

Row | Variant | protein stability index
1 | T1A | 2.06

Variants of: B2
Assay: as above
Conditions: c terminus: a fixed tail appended

Row | Variant | protein stability index
2 | G11A | 2.56
3 | G11Y | 2.04
4 | G11S | 2.48
5 | G11M | 2.03
6 | G11T | 2.86
7 | G11H | 2.67
8 | G11R | 2.86
9 | G11F | 1.98
10 | G11D | 3.4
11 | G11Q | 2.96
12 | G11P | 3.22
13 | G11C | 2.19
14 | G11L | 2.5
15 | G11N | 3.09
16 | G11I | 1.81
17 | G11E | 3.32
18 | G11K | 2.39
19 | G11W | 2.33
20 | G11V | 2.67
21 | C24G | 3.8
22 | C24F | 1.88
23 | C24E | 3.88
24 | C24K | 3.29
25 | C24A | 3.96

Row | Variant | protein stability index
26 | C24L | 2.38
27 | C24R | 3.57
28 | C24T | 3.61
29 | C24W | 3.05
30 | C24I | 2.49
31 | C24Q | 4.31
32 | C24H | 3.23
33 | C24D | 4.46
34 | C24N | 3.42
35 | C24Y | 2.08
36 | C24M | 2.28
37 | C24V | 1.95
38 | C24P | 3.87
39 | C24S | 3.91
40 | I23V | 3.22
41 | I23E | 4.13
42 | I23M | 2.83
43 | I23C | 2.73
44 | I23Q | 3.35
45 | I23F | 2.1
46 | I23T | 3.88
47 | I23W | 2.35
48 | I23N | 3.77
49 | I23H | 3.47

Row | Variant | protein stability index
50 | I23L | 3.71
51 | I23D | 4.42
52 | I23P | 3.24
53 | I23Y | 2.11
54 | I23K | 3.35
55 | I23S | 3.21
56 | I23R | 2.9
57 | I23A | 3.95
58 | I23G | 3.52
59 | T19H | 3.1
60 | T19S | 3.21
61 | T19R | 2.37
62 | T19Y | 2.24
63 | T19M | 2.33
64 | T19C | 2.84
65 | T19V | 3.3
66 | T19K | 2.82
67 | T19Q | 3.19
68 | T19N | 3.71
69 | T19I | 2.62
70 | T19D | 3.68
71 | T19P | 3.13
72 | T19F | 2.66
73 | T19G | 3.25

Row | Variant | protein stability index
74 | T19W | 1.53
75 | T19L | 2.14
76 | T19E | 3.09
77 | E16R | 2.63
78 | E16S | 2.71
79 | E16D | 3.12
80 | E16P | 2.42
81 | E16A | 2.13
82 | E16V | 1.76
83 | E16I | 2.25
84 | E16T | 2.62
85 | E16M | 2.14
86 | E16K | 2.19
87 | E16G | 2.01
88 | E16Q | 2.33
89 | E16H | 1.86
90 | E16C | 1.82
91 | E16N | 2.15
92 | E16L | 2.59
93 | T13M | 2.19
94 | T13R | 2.47
95 | T13H | 2.34
96 | T13N | 3.35
97 | T13F | 1.88

Row | Variant | protein stability index
98 | T13C | 2.55
99 | T13K | 2.48
100 | T13L | 2.29
101 | T13Q | 3.18
102 | T13Y | 2.19
103 | T13G | 3.03
104 | T13A | 2.54
105 | T13E | 3.3
106 | T13P | 2.87
107 | T13V | 2.24
108 | T13D | 3.43
109 | T13S | 2.95
110 | T13W | 1.85
111 | T13I | 2.06
112 | S7F | 1.43
113 | S7T | 3.24
114 | S7K | 2.84
115 | S7W | 4.33
116 | S7R | 2.29
117 | S7N | 3.14
118 | S7E | 3.87
119 | S7Y | 1.64
120 | S7M | 2.19
121 | S7Q | 3.04

Row | Variant | protein stability index
122 | S7D | 3.09
123 | S7G | 2.63
124 | S7L | 3.1
125 | S7H | 2.75
126 | S7I | 2.42
127 | S7P | 3.12
128 | S7V | 2.39
129 | S9A | 2.5
130 | S9I | 2.2
131 | S9L | 1.99
132 | S9H | 2.77
133 | S9T | 2.78
134 | S9M | 2.32
135 | S9K | 2.76
136 | S9F | 2.19
137 | S9E | 3.22
138 | S9R | 2.14
139 | S9V | 2.15
140 | S9G | 2.7
141 | S9Y | 1.66
142 | S9D | 3.23
143 | S9Q | 3.14
144 | S9N | 2.76
145 | S9P | 2.75

Row | Variant | protein stability index
146 | S9C | 2.02
147 | I22E | 4.08
148 | I22Y | 3.1
149 | I22F | 3.03
150 | I22L | 2.34
151 | I22S | 4.26
152 | I22R | 3.53
153 | I22P | 3.99
154 | I22T | 3.87
155 | I22W | 1.67
156 | I22D | 4.25
157 | I22A | 3.56
158 | I22H | 3.58
159 | I22N | 3.49
160 | I22Q | 3.74
161 | I22K | 3.74
162 | I22C | 3.17
163 | I22M | 2.63
164 | I22G | 3.85
165 | I22V | 3.02
166 | H14Q | 3.46
167 | H14K | 2.35
168 | H14E | 4.18
169 | H14L | 2.37

Row | Variant | protein stability index
170 | H14W | 1.75
171 | H14T | 3.08
172 | H14S | 3.02
173 | H14V | 2.95
174 | H14A | 3.11
175 | H14M | 2.35
176 | H14P | 2.83
177 | H14N | 3.43
178 | H14D | 3.29
179 | H14F | 1.89
180 | H14C | 1.96
181 | H14G | 2.47
182 | H14Y | 2.52
183 | H14R | 2.89
184 | H14I | 3.28
185 | D18A | 2.13
186 | D18N | 2.25
187 | D18L | 2.62
188 | D18T | 2.31
189 | D18H | 2.28
190 | D18W | 1.62
191 | D18I | 2.02
192 | D18F | 2.33
193 | D18G | 2.3

Row | Variant | protein stability index
194 | D18S | 2.58
195 | D18R | 2.07
196 | D18K | 2.52
197 | D18Q | 2.47
198 | D18V | 2.34
199 | D18C | 1.65
200 | D18P | 2.23
201 | D18E | 2.76
202 | D18M | 1.83
203 | D18Y | 2.36
204 | E8K | 1.97
205 | E8L | 1.81
206 | E8S | 2.32
207 | E8D | 2.75
208 | E8Y | 2.29
209 | E8I | 1.57
210 | E8T | 2.16
211 | E8N | 2.18
212 | E8R | 2.28
213 | E8W | 3.2
214 | E8P | 2.51
215 | E8C | 1.82
216 | E8M | 1.57
217 | E8G | 2.22

Row | Variant | protein stability index
218 | E8H | 2.08
219 | E8F | 1.64
220 | E8A | 2.15
221 | E8Q | 2.15
222 | E8V | 2.45
223 | Q21C | 2.18
224 | Q21Y | 2.58
225 | Q21G | 3.01
226 | Q21F | 1.91
227 | Q21A | 3.11
228 | Q21N | 3.29
229 | Q21H | 2.24
230 | Q21M | 1.92
231 | Q21E | 3.15
232 | Q21D | 3.69
233 | Q21V | 1.85
234 | Q21L | 1.17
235 | Q21T | 2.79
236 | Q21K | 2.83
237 | Q21P | 3.04
238 | Q21I | 1.82
239 | Q21S | 2.91
240 | Q21R | 2.9
241 | V20A | 3.64

Row | Variant | protein stability index
242 | V20M | 2.59
243 | V20F | 2.02
244 | V20I | 2.19
245 | V20P | 3.26
246 | V20H | 3.41
247 | V20N | 3.66
248 | V20R | 3.3
249 | V20Y | 2.71
250 | V20D | 3.81
251 | V20S | 2.74
252 | V20K | 3.06
253 | V20T | 3.74
254 | V20G | 4
255 | V20L | 2.45
256 | V20Q | 4.09
257 | V20C | 2.69
258 | V20E | 4.03
259 | V20W | 1.57
260 | L15Y | 2.76
261 | L15R | 2.87
262 | L15I | 2.69
263 | L15H | 3
264 | L15D | 3.4
265 | L15V | 2.99

Row | Variant | protein stability index
266 | L15E | 3.15
267 | L15P | 3.2
268 | L15K | 3.25
269 | L15Q | 3.65
270 | L15G | 2.9
271 | L15F | 2.2
272 | L15W | 1.53
273 | L15T | 3.12
274 | L15C | 2.78
275 | L15A | 3.22
276 | L15S | 3.22
277 | L15M | 3.13
278 | L15N | 3.49
279 | G17K | 2.54
280 | G17E | 4.47
281 | G17T | 2.91
282 | G17V | 2.11
283 | G17I | 2.05
284 | G17H | 2.99
285 | G17C | 2.28
286 | G17P | 2.81
287 | G17Y | 1.73
288 | G17L | 2.08
289 | G17W | 1.79

Row | Variant | protein stability index
290 | G17A | 2.3
291 | G17S | 2.77
292 | G17N | 2.9
293 | G17F | 1.8
294 | G17R | 2.52
295 | G17Q | 2.97
296 | G17D | 3.46
297 | G17M | 2.29
298 | S10G | 2.87
299 | S10Y | 1.94
300 | S10D | 3.51
301 | S10P | 3.49
302 | S10C | 2
303 | S10N | 2.99
304 | S10Q | 2.77
305 | S10M | 2.08
306 | S10V | 1.75
307 | S10F | 1.97
308 | S10R | 2.59
309 | S10H | 2.34
310 | S10A | 2.65
311 | S10K | 2.65
312 | S10T | 2.73
313 | S10E | 3.33

Row | Variant | protein stability index
314 | S10L | 2.31
315 | S10I | 1.56
316 | Q12H | 2.4
317 | Q12S | 2.49
318 | Q12Y | 1.62
319 | Q12P | 3.19
320 | Q12R | 1.92
321 | Q12L | 1.69
322 | Q12V | 2.08
323 | Q12D | 3.46
324 | Q12M | 1.76
325 | Q12N | 3.39
326 | Q12W | 2.35
327 | Q12A | 2.43
328 | Q12K | 2.05
329 | Q12C | 1.86
330 | Q12E | 3.67
331 | Q12F | 2.23
332 | Q12T | 2.62
333 | Q12G | 3.2
334 | Q12I | 2.06
